# Assays:
# Experiment in all cases: radioligand binding
# [1] = molecular target: HLA-DR DRB1*0101 (human (endogenous in EBV transformed cell lines))
# [2] = molecular target: HLA-DR DRB1*0802 (human (endogenous in EBV transformed cell lines))
# [3] = molecular target: HLA-DR DRB1*1101 (human (endogenous in EBV transformed cell lines))
# [4] = molecular target: HLA-DR DRB1*1501 (human (endogenous in EBV transformed cell lines))
# [5] = molecular target: HLA-DR DRB4*0101 (human (endogenous in EBV transformed cell lines))
# [6] = molecular target: HLA-DR DRB1*0901 (human (endogenous in EBV transformed cell lines))
# [7] = molecular target: HLA-DR DRB5*0101 (human (endogenous in EBV transformed cell lines))
# [8] = molecular target: HLA-DR DRB1*0701 (human (endogenous in EBV transformed cell lines))
# [9] = molecular target: HLA-DR DRB1*0301 (human (endogenous in EBV transformed cell lines))
# [10] = molecular target: HLA-DR DRB3*0101 (human (endogenous in EBV transformed cell lines))
# [11] = molecular target: HLA-DR DRB1*0401 (human (endogenous in EBV transformed cell lines))
substance,measurement,setting,value
DENV3 Envelope 51-65 (peptide),IC50,[1],80.6 nM
same,IC50,[2],130 nM
same,IC50,[3],40.4 nM
same,IC50,[4],982 nM
same,IC50,[5],154 nM
DENV3 Envelope 121-135 (peptide),IC50,[4],404 nM
DENV3 Envelope 171-185 (peptide),IC50,[1],62.6 nM
same,IC50,[2],91.2 nM
same,IC50,[5],787 nM
DENV3 Envelope 231-245 (peptide),IC50,[1],5.11 nM
same,IC50,[6],48.4 nM
same,IC50,[4],5.25 nM
same,IC50,[7],24.6 nM
DENV3 Envelope 236-250 (peptide),IC50,[1],340 nM
same,IC50,[8],560 nM
same,IC50,[2],419 nM
same,IC50,[7],29.6 nM
DENV3 Envelope 251-265 (peptide),IC50,[1],588 nM
same,IC50,[7],722 nM
DENV3 Envelope 261-275 (peptide),IC50,[8],82.1 nM
DENV3 Envelope 281-295 (peptide),IC50,[9],16.7 nM
same,IC50,[4],652 nM
same,IC50,[10],31.1 nM
DENV3 Envelope 301-315 (peptide),IC50,[11],26.6 nM
same,IC50,[2],58.9 nM
DENV3 Envelope 306-320 (peptide),IC50,[11],530 nM
DENV3 Envelope 316-330 (peptide),IC50,[3],153 nM
same,IC50,[4],361 nM
DENV3 Envelope 366-380 (peptide),IC50,[8],552 nM
same,IC50,[2],762 nM
DENV3 Envelope 376-390 (peptide),IC50,[1],476 nM
same,IC50,[2],84.6 nM
same,IC50,[4],448 nM
same,IC50,[10],15.3 nM
DENV3 NS1 29-43 (peptide),IC50,[10],10.6 nM
same,IC50,[7],22.8 nM
DENV3 NS1 33-47 (peptide),IC50,[10],22.4 nM
same,IC50,[5],916 nM
DENV3 NS1 69-83 (peptide),IC50,[10],50.2 nM
DENV3 NS1 93-107 (peptide),IC50,[8],483 nM
DENV3 NS1 121-135 (peptide),IC50,[1],355 nM
same,IC50,[2],45.5 nM
same,IC50,[5],382 nM
DENV3 NS1 133-147 (peptide),IC50,[10],62.3 nM
DENV3 NS1 193-207 (peptide),IC50,[10],24.3 nM
same,IC50,[5],180 nM
DENV3 NS1 229-243 (peptide),IC50,[9],170 nM
same,IC50,[11],178 nM
same,IC50,[10],733 nM
DENV3 NS1 233-247 (peptide),IC50,[9],72.6 nM
same,IC50,[11],87 nM
same,IC50,[10],159 nM
DENV3 NS1 241-255 (peptide),IC50,[1],50.7 nM
DENV3 NS1 261-275 (peptide),IC50,[5],666 nM
DENV3 NS1 269-283 (peptide),IC50,[10],71.3 nM
DENV3 NS1 293-307 (peptide),IC50,[8],83.2 nM
same,IC50,[5],793 nM
DENV3 NS1 297-311 (peptide),IC50,[1],228 nM
same,IC50,[11],484 nM
same,IC50,[8],262 nM
same,IC50,[2],561 nM
same,IC50,[4],736 nM
DENV3 NS1 305-319 (peptide),IC50,[9],841 nM
DENV3 NS1 313-327 (peptide),IC50,[5],503 nM
DENV3 NS3 53-67 (peptide),IC50,[7],329 nM
DENV3 NS3 57-71 (peptide),IC50,[1],882 nM
same,IC50,[4],196 nM
DENV3 NS3 69-83 (peptide),IC50,[4],29.5 nM
DENV3 NS3 73-87 (peptide),IC50,[7],70.7 nM
DENV3 NS3 77-91 (peptide),IC50,[6],268 nM
same,IC50,[4],52.1 nM
same,IC50,[5],708 nM
DENV3 NS3 105-119 (peptide),IC50,[1],49 nM
same,IC50,[2],175 nM
same,IC50,[6],407 nM
same,IC50,[5],843 nM
same,IC50,[7],177 nM
DENV3 NS3 109-123 (peptide),IC50,[1],148 nM
same,IC50,[2],557 nM
DENV3 NS3 113-127 (peptide),IC50,[1],226 nM
same,IC50,[11],17.9 nM
DENV3 NS3 121-135 (peptide),IC50,[9],8.64 nM
DENV3 NS3 125-139 (peptide),IC50,[9],47.2 nM
DENV3 NS3 137-151 (peptide),IC50,[1],843 nM
same,IC50,[4],502 nM
DENV3 NS3 181-195 (peptide),IC50,[4],891 nM
same,IC50,[5],67.8 nM
DENV3 NS3 209-223 (peptide),IC50,[5],5.06 nM
DENV3 NS3 241-255 (peptide),IC50,[8],525 nM
same,IC50,[7],16.7 nM
DENV3 NS3 313-327 (peptide),IC50,[2],39.7 nM
DENV3 NS3 345-359 (peptide),IC50,[10],31.8 nM
DENV3 NS3 349-363 (peptide),IC50,[4],608 nM
same,IC50,[10],221 nM
DENV3 NS3 357-371 (peptide),IC50,[1],15.9 nM
same,IC50,[9],436 nM
same,IC50,[8],29.5 nM
same,IC50,[6],100 nM
same,IC50,[4],15.7 nM
same,IC50,[10],711 nM
same,IC50,[5],759 nM
same,IC50,[7],273 nM
DENV3 NS3 381-395 (peptide),IC50,[10],399 nM
DENV3 NS3 389-403 (peptide),IC50,[3],676 nM
DENV3 NS3 393-407 (peptide),IC50,[8],456 nM
DENV3 NS3 409-423 (peptide),IC50,[9],470 nM
same,IC50,[10],168 nM
same,IC50,[7],50.3 nM
DENV3 NS3 413-427 (peptide),IC50,[9],261 nM
same,IC50,[10],96.1 nM
DENV3 NS3 417-431 (peptide),IC50,[10],632 nM
DENV3 NS3 429-443 (peptide),IC50,[10],5.72 nM
DENV3 NS3 605-619 (peptide),IC50,[2],36.8 nM
same,IC50,[4],28.1 nM
same,IC50,[7],19.6 nM
DENV3 NS5 29-45 (peptide),IC50,[3],289 nM
DENV3 NS5 39-55 (peptide),IC50,[10],749 nM
same,IC50,[5],563 nM
DENV3 NS5 45-61 (peptide),IC50,[8],453 nM
same,IC50,[3],82.5 nM
same,IC50,[5],8.53 nM
same,IC50,[7],449 nM
DENV3 NS5 165-181 (peptide),IC50,[7],19.9 nM
DENV3 NS5 268-284 (peptide),IC50,[5],869 nM
DENV3 NS5 284-300 (peptide),IC50,[9],9.34 nM
same,IC50,[11],306 nM
same,IC50,[10],17.1 nM
DENV3 NS5 290-306 (peptide),IC50,[1],299 nM
DENV3 NS5 295-311 (peptide),IC50,[10],980 nM
DENV3 NS5 301-316 (peptide),IC50,[10],536 nM
DENV3 NS5 306-322 (peptide),IC50,[2],70.2 nM
DENV3 NS5 330-346 (peptide),IC50,[2],4.01 nM
DENV3 NS5 336-352 (peptide),IC50,[5],747 nM
DENV3 NS5 447-463 (peptide),IC50,[7],25 nM
DENV3 NS5 495-511 (peptide),IC50,[11],14.9 nM
same,IC50,[8],190 nM
same,IC50,[6],448 nM
same,IC50,[7],723 nM
DENV3 NS5 501-517 (peptide),IC50,[1],6.98 nM
same,IC50,[11],73.6 nM
same,IC50,[8],17.5 nM
same,IC50,[2],836 nM
same,IC50,[6],351 nM
DENV3 NS5 511-527 (peptide),IC50,[5],56.7 nM
same,IC50,[7],611 nM
DENV3 NS5 570-586 (peptide),IC50,[7],27.8 nM
DENV3 NS5 582-598 (peptide),IC50,[3],106 nM
DENV3 NS5 588-604 (peptide),IC50,[3],124 nM
DENV3 NS5 636-652 (peptide),IC50,[8],352 nM
same,IC50,[4],453 nM
DENV3 NS5 642-658 (peptide),IC50,[1],166 nM
same,IC50,[9],775 nM
same,IC50,[3],665 nM
same,IC50,[4],59.4 nM
same,IC50,[7],5.07 nM
DENV3 NS5 658-674 (peptide),IC50,[2],453 nM
DENV3 NS5 670-686 (peptide),IC50,[5],971 nM
same,IC50,[7],478 nM
DENV3 NS5 780-795 (peptide),IC50,[5],168 nM
DENV3 NS5 838-854 (peptide),IC50,[6],680 nM
same,IC50,[10],79.2 nM
